Results on 47 variants are retold here after the Human Domainome abundance scans (Beltran et al. 2025).

B1: Zinc finger homeobox protein 3, residues 2244 to 2299; numbered along this chain, Q15911 (parent)
chain: SSRTRFTDYQLRVLQDFFDANAYPKDDEFEQLSNLLNLPTRVIVVWFQNARQKARK

± gives the uncertainty stated by the source.

In this series the parent is B1. Briefly: abundance fitness (aPCA) (normalised: wild type 0, dead -1); higher = more abundant; growth selection in yeast, the domain comes from the species named. Conditions: Homo sapiens.
Regarding SSRTRFTDYQLRVLQDFFDANAYPKDDEFEQLSNLLNDPTRVIVVWFQNARQKARK, the abundance fitness was -1.07 ± 0.35.
To SSRTRFTDYQLRVLQDFFDANAYPKDDEFEQLSNLLNCPTRVIVVWFQNARQKARK belongs -0.451 ± 0.16; to SSRTRFTDYQLRVLQDFFDANAYPKDDEFEQLSNLLNFPTRVIVVWFQNARQKARK, -0.522 ± 0.31.
Consider SSRTRFTDYQLRVLQDFFDANAYPKDDEFEQLSNLLNYPTRVIVVWFQNARQKARK, for which the abundance fitness was -0.625 ± 0.25.
In the case of SSRTRFTDYQLRVLQDFFDANAYPKDDEFEQLSNLLNTPTRVIVVWFQNARQKARK it was -0.166 ± 0.12; in that of SSRTRFTDYQLRVLQDFFDANAYPKDDEFEQLSNLLNGPTRVIVVWFQNARQKARK, -0.884 ± 0.094; in that of SSRTRFTDYQLRVLQDFFDANAYPKDDEFEQLSNLLNSPTRVIVVWFQNARQKARK, -0.506 ± 0.11.
In the case of SSRTRFTDYQLRVLQDFFDANAYPKDDEFEQLSNLLNMPTRVIVVWFQNARQKARK it was -0.026 ± 0.13.
Consider SSRTRFTDYQLRVLQDFFDANAYPKDDEFEQLSNLLNRPTRVIVVWFQNARQKARK, for which the abundance fitness was -0.517 ± 0.085.
Turning to SSRTRFTDYQLRVLQDFFDANAYPKDDEFEQLSNLLNKPTRVIVVWFQNARQKARK, the abundance fitness was -0.531 ± 0.17.
On to SSRTRFTDYQLRVLQDFFDANAYPKDDEFEQLSNLLNQPTRVIVVWFQNARQKARK, for which the abundance fitness is -0.174 ± 0.13.
On to SSRTRFTDYQLRVLQDFFDANAYPKDDEFEQLSNLLNEPTRVIVVWFQNARQKARK, for which the abundance fitness is -0.278 ± 0.11.
To SSRTRFTDYQLRVLQDFFDANAYPKDDEFEQLSNLLNVPTRVIVVWFQNARQKARK belongs -0.226 ± 0.082; to SSRTRFTDYQLRVLQDFFDANAYPKDDEFEQLSNLLNLPARVIVVWFQNARQKARK, -0.119 ± 0.079.
Turning to SSRTRFTDYQLRVLQDFFDANAYPKDDEFEQLSNLLNLPCRVIVVWFQNARQKARK, the abundance fitness is -0.012 ± 0.094.
To SSRTRFTDYQLRVLQDFFDANAYPKDDEFEQLSNLLNLATRVIVVWFQNARQKARK belongs -0.342 ± 0.095; to SSRTRFTDYQLRVLQDFFDANAYPKDDEFEQLSNLLNLKTRVIVVWFQNARQKARK, -0.197 ± 0.17; to SSRTRFTDYQLRVLQDFFDANAYPKDDEFEQLSNLLNLHTRVIVVWFQNARQKARK, -0.149 ± 0.082.
To SSRTRFTDYQLRVLQDFFDANAYPKDDEFEQLSNLLNLNTRVIVVWFQNARQKARK belongs -0.157 ± 0.098; to SSRTRFTDYQLRVLQDFFDANAYPKDDEFEQLSNLLNLWTRVIVVWFQNARQKARK, -1.08 ± 0.23.
For the variant SSRTRFTDYQLRVLQDFFDANAYPKDDEFEQLSNLLNLSTRVIVVWFQNARQKARK, the abundance fitness is 0.035 ± 0.073.
Regarding SSRTRFTDYQLRVLQDFFDANAYPKDDEFEQLSNLLNLVTRVIVVWFQNARQKARK, the abundance fitness is -1.09 ± 0.14.
Take SSRTRFTDYQLRVLQDFFDANAYPKDDEFEQLSNLLNLLTRVIVVWFQNARQKARK: the abundance fitness was -0.786 ± 0.091.
To SSRTRFTDYQLRVLQDFFDANAYPKDDEFEQLSNLLNLYTRVIVVWFQNARQKARK belongs -0.99 ± 0.12; to SSRTRFTDYQLRVLQDFFDANAYPKDDEFEQLSNLLNLRTRVIVVWFQNARQKARK, -0.258 ± 0.082; to SSRTRFTDYQLRVLQDFFDANAYPKDDEFEQLSNLLNLDTRVIVVWFQNARQKARK, 0.196 ± 0.098.
With SSRTRFTDYQLRVLQDFFDANAYPKDDEFEQLSNLLNLGTRVIVVWFQNARQKARK, the abundance fitness was -0.297 ± 0.09.
For SSRTRFTDYQLRVLQDFFDANAYPKDDEFEQLSNLLNLQTRVIVVWFQNARQKARK, the abundance fitness is -0.028 ± 0.11.
To SSRTRFTDYQLRVLQDFFDANAYPKDDEFEQLSNLLNLCTRVIVVWFQNARQKARK belongs -0.634 ± 0.12; to SSRTRFTDYQLRVLQDFFDANAYPKDDEFEQLSNLLNLFTRVIVVWFQNARQKARK, -0.715 ± 0.12; to SSRTRFTDYQLRVLQDFFDANAYPKDDEFEQLSNLLNLTTRVIVVWFQNARQKARK, -0.209 ± 0.087.
In the case of SSRTRFTDYQLRVLQDFFDANAYPKDDEFEQLSNLLNLETRVIVVWFQNARQKARK, the abundance fitness was -0.06 ± 0.15.
To SSRTRFTDYQLRVLQDFFDANAYPKDDEFEQLSNLLTLPTRVIVVWFQNARQKARK belongs -0.179 ± 0.13; to SSRTRFTDYQLRVLQDFFDANAYPKDDEFEQLSNLLRLPTRVIVVWFQNARQKARK, -0.057 ± 0.075; to SSRTRFTDYQLRVLQDFFDANAYPKDDEFEQLSNLLMLPTRVIVVWFQNARQKARK, -0.038 ± 0.12.
As to SSRTRFTDYQLRVLQDFFDANAYPKDDEFEQLSNLLPLPTRVIVVWFQNARQKARK, the abundance fitness is -0.831 ± 0.19.
In the case of SSRTRFTDYQLRVLQDFFDANAYPKDDEFEQLSNLLQLPTRVIVVWFQNARQKARK it was -0.12 ± 0.15; in that of SSRTRFTDYQLRVLQDFFDANAYPKDDEFEQLSNLLGLPTRVIVVWFQNARQKARK, -0.046 ± 0.076; in that of SSRTRFTDYQLRVLQDFFDANAYPKDDEFEQLSNLLVLPTRVIVVWFQNARQKARK, -0.117 ± 0.086.
Regarding SSRTRFTDYQLRVLQDFFDANAYPKDDEFEQLSNLLILPTRVIVVWFQNARQKARK, the abundance fitness is -0.289 ± 0.16.
On to SSRTRFTDYQLRVLQDFFDANAYPKDDEFEQLSNLLSLPTRVIVVWFQNARQKARK, for which the abundance fitness is -0.064 ± 0.096.
To SSRTRFTDYQLRVLQDFFDANAYPKDDEFEQLSNLLKLPTRVIVVWFQNARQKARK belongs -0.009 ± 0.14; to SSRTRFTDYQLRVLQDFFDANAYPKDDEFEQLSNLLFLPTRVIVVWFQNARQKARK, -0.236 ± 0.15; to SSRTRFTDYQLRVLQDFFDANAYPKDDEFEQLSNLLDLPTRVIVVWFQNARQKARK, -0.032 ± 0.13.
To SSRTRFTDYQLRVLQDFFDANAYPKDDEFEQLSNLLALPTRVIVVWFQNARQKARK belongs -0.096 ± 0.12; to SSRTRFTDYQLRVLQDFFDANAYPKDDEFEQLSNLLHLPTRVIVVWFQNARQKARK, -0.013 ± 0.16; to SSRTRFTDYQLRVLQDFFDANAYPKDDEFEQLSNLLELPTRVIVVWFQNARQKARK, -0.034 ± 0.1.
